Reference: US20250034253A1 (AKESO BIOPHARMA, published 2025)

Biological target: T1, human TIGIT-mFc (human; mouse, UniProt Q495A1 22-141, limits assumed)
T1 construct: also called antigen TIGIT-mFc; TIGIT-mnFc
Assay: BLI (Fortebio), TIGIT-mFc on AMC sensor, 37 C, 1:1 fit
Method: The sample dilution buffer was PBS (0.02% Tween-20, 0.1% BSA, pH 7.4). TIGIT-mFc was immobilized on an AMC sensor at a concentration of […] for 50 s, and the sensor was equilibrated in the buffer for 60 s. The TIGIT-mFc immobilized on the sensor was allowed to bind to the antibody at concentrations of 0.06-5 nM (three-fold dilutions) for 120 s, and the protein was dissociated in the buffer for 300 s. The sensor was regenerated in 10 mM glycine solution (pH=1.7). The detection temperature was 37° C., the detection frequency was 0.3 Hz, and the sample plate shaking rate was 1000 rpm. The data were analyzed by 1:1 model fitting to obtain affinity constants.

T1 sequence (Q495A1 other isoform, or with tags, fused parts or gaps limits assumed): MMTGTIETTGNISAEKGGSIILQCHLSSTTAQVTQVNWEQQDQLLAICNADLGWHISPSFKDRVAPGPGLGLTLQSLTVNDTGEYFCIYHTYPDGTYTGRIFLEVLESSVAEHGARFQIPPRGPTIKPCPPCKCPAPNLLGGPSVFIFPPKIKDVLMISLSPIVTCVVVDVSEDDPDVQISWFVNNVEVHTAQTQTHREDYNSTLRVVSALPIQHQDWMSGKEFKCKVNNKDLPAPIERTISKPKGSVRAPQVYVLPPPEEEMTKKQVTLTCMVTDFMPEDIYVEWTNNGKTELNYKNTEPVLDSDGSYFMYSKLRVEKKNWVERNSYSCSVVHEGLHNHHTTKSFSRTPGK

Maximum signal height of analyte (nm): 0.16 nm | S E(kdis): 3.46e-05 s⁻¹
B1: RG6058 (antibody, V domains shown)
VH: EVQLQQSGPGLVKPSQTLSLTCAISGDSVSSNSAAWNWIRQSPSRGLEWLGKTYYRFKWYSDYAVSVKGRITINPDTSKNQFSLQLNSVTPEDTAVFYCTRESTTYDLLAGPFDYWGQGTLVTVSS
VL: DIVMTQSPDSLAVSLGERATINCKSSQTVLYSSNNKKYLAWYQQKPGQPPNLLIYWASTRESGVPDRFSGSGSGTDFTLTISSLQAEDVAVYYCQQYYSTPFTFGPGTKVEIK
